As usually defined, the koff is a measure of how fast the partners let go of each other. As usually defined, the kon is the second-order rate constant of association.

This experiment addresses T1, keyhole limpet hemocyanin (multimeric high molecular weight KLH) (Megathura crenulata (keyhole limpet), UniProt Q10583 17-3414; Q10584 20-3421).
T1 construct: also called mcKLH; Multimeric KLH
In words: SPR (BIAcore 2000), antibody captured on anti-human IgG Fc surface, multimeric KLH injected; apparent constants.

Protocol: Multimeric high molecular weight keyhole limpet hemocyanin (KLH) was from Pierce (Rockford, Ill.). Anti-human IgG, Fcγ-specific antibody was from Jackson ImmunoResearch Laboratories, Inc. (West Grove, Pa.). BIACore 2000, research grade sensor chip CM5, surfactant P-20 (polyoxyethylenesorbitan), HBS-EP (10 mM HEPES, 0.15M NaCl, 3.4 mM EDTA, 0.005% P-20, pH 7.4), amine coupling reagents, 10 mM acetate, pH 4.5, and 10 mM glycine, pH 1.5 were from BIACore, Inc. (Piscataway, N.J.). Phosphate-buffered saline (PBS, 1×, no calcium chloride, no magnesium chloride) was from Invitrogen (Carlsbad, Calif.). Bovine serum albumin (BSA, fraction V, IgG free) was from Sigma (St. Louis, Mo.).
Anti-KLH antibody wase captured on individual flow cells, followed by injection of either sample buffer or KLH, ranging in concentration from 0.19-100 nM. To prepare dilutions of the multimeric high molecular weight KLH, an average molecular weight of 5,000,000 daltons was used. Following sample buffer or antigen injection, each surface was regenerated by two injections of 10 mM glycine, pH 1.5 to dissociate captured antibody from the immobilized anti-human Fc surfaces. BIAevaluation software was used to determine apparent kinetic parameters for binding of KLH to captured anti-KLH antibodies.

B1: anti-KLH antibody (human IgG1, clone 120.6.1) (antibody, V domains shown)
VH: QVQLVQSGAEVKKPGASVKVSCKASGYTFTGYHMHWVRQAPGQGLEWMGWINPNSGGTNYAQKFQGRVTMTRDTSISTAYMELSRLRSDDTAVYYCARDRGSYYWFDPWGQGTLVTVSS
VL: DIQMTQSPSSLSASVGDRVTITCRASQGIRNDLGWYQQKPGKAPKRLIYAASSLQSGVPSRFSGSGSGTEFTLTISSLQPEDFATYYCLQHNSYPLTFGGGTKVEIK
notes: also called IgG1 (120.6.1); anti-KLH 120.6.1
As for B1, the Kd amounted to 0.2 nM, the koff was 2.5e-05 s⁻¹ and the kon amounted to 120000 M⁻¹ s⁻¹.

Values taken from patent US20120195879A1 (published 2012).
